T1: truncated OGT N567K (O-GlcNAc transferase, residues 323-1044, N567K variant) (human) (UniProt O15294)
T1 sequence: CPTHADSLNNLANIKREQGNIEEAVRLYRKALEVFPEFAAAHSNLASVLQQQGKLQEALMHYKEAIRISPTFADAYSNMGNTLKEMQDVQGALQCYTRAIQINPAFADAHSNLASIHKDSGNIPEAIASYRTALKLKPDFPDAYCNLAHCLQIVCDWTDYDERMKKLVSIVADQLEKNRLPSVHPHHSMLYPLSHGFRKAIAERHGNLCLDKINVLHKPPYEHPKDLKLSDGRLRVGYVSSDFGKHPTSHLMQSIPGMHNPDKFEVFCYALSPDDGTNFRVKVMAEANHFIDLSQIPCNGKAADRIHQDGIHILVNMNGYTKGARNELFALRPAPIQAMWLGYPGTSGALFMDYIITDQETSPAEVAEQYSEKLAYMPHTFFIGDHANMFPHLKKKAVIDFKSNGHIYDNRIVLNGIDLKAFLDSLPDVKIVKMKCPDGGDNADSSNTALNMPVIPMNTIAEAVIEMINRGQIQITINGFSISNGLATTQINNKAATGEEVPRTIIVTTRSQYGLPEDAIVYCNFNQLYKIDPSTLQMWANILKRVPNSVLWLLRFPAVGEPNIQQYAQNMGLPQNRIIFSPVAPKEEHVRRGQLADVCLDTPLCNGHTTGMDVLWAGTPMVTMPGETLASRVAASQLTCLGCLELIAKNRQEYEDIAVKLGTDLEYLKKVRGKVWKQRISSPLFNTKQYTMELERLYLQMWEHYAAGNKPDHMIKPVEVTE

T2: truncated OGT N567K (O-GlcNAc transferase, residues 323-1044, N567K variant) (human, UniProt O15294 323-1044, N567K)
T2 construct: O-GlcNAc transferase (OGT), human, residues 323-1044, with the patient missense mutation N567K in the catalytic domain; In the crystal it also holds the donor analog UDP-5S-GlcNAc; N567K is a de novo mutation found in patients; also called N567K OGT; O-linked β-N-acetyl-D-glucosamine (O-GlcNAc) transferase N567K; source: recombinant, from Escherichia coli (expression and purification in SI …)
T2 sequence (looked up): T1 sequence

B1: P1 acceptor peptide (KKVPVSRA) (peptide)
peptide: KKVPVSRA
B2: P2 acceptor peptide (KKVAVSRA) (peptide)
peptide: KKVAVSRA
notes: OGT acceptor peptide substrate with alanine at the -2 subsite

What was measured:
[1] = biological target: T1, truncated OGT N567K (O-GlcNAc transferase, residues 323-1044, N567K variant) (human)
[2] = biological target: T2, truncated OGT N567K (O-GlcNAc …); experiment: crystal structure; OGT N567K (323-1044) cocrystallized with the donor analog UDP-5S-GlcNAc and acceptor peptide P2; ternary complex; molecular replacement with PDB 5C1D; conditions: both partners purified

| Binder | OGT glycosyltransferase activity, steady-state (Michaelis-Menten) kinetics, fluorometric assay, OGT N567K against acceptor peptide P1, compared with OGT WT [1] | binding result [2] |
| --- | --- | --- |
| B1 | 12 fold | – |
| B2 | – | binds |
